# Measurements from patent US20220177583A1.
# What was measured:
# [1] = target: human CLDN6 fused to GFP, expressed on engineered HEK293T cells (human) (UniProt P56747); assay: FACS, 293T clone with human CLDN6, 1.5 ug Ab
# [2] = target: human CLDN6 fused to GFP, expressed on engineered HEK293T cells (human) (UniProt P56747); assay: FACS, 293T clone with human CLDN6, 0.3 ug Ab
FACS signal [1],FACS signal [2],Binder
47800,14300,"AB4-3 (antibody, V domains shown) VH: QVQLVQSGAEVKKPGASVKVSCKASGYTFTSYTMHWVRQAPGQGLEWMGYINPSSTYTHYAQKFQGRVTMTADTSTSTVYMELSSLRSEDTAVYYCSRGELGGFAYWGQGTLVTVSS VL: DVVMTQSPLSLPVTLGQPASISCRSSQSLVHSDGNTYLNWYQQRPGQSPRLLIYKVSNRFSGVPDRFSGSGSGTDFTLKISRVEAEDVGVYYCSQSTHVPYTFGQGTKLEIK"
33300,19200,"AB4-7 (antibody, V domains shown) VH: QVQLVQSGAEVKKPGASVKMSCKASGYTFTSYTMHWIRQAPGQGQEWIGYINPSSTYTHYAQKFQGRATLTADKSTSTAYMELSSLRSEDTAVYYCSRGELGGFAYWGQGTLVTVSS VL: DVVMTQSPLSLPVTLGQPASISCRSSQSLVHSDGNTYLNWYQQRPGQSPRLLIYKVSNRFSGVPDRFSGSGSGTDFTLKISRVEAEDVGVYYCSQSTHVPYTFGQGTKLEIK"
43400,16800,"AB4-5 (antibody, V domains shown) VH: QVQLVQSGAEVKKPGASVKMSCKASGYTFTSYTMHWIRQAPGQGQEWIGYINPSSTYTHYAQKFQGRATLTADTSTSTAYMELSSLRSEDTAVYYCSRGELGGFAYWGQGTLVTVSS VL: DVVMTQSPLSLPVTLGQPASISCRSSQSLVHSDGNTYLNWYQQRPGQSPRLLIYKVSNRFSGVPDRFSGSGSGTDFTLKISRVEAEDVGVYYCSQSTHVPYTFGQGTKLEIK"
29200,10800,"AB4-6 (antibody, V domains shown) VH: QVQLVQSGAEVKKPGASVKMSCKASGYTFTSYTMHWIRQAPGQGLEWIGYINPSSTYTHYAQKFQGRATLTADKSTSTAYMELSSLRSEDTAVYYCSRGELGGFAYWGQGTLVTVSS VL: DVVMTQSPLSLPVTLGQPASISCRSSQSLVHSDGNTYLNWYQQRPGQSPRLLIYKVSNRFSGVPDRFSGSGSGTDFTLKISRVEAEDVGVYYCSQSTHVPYTFGQGTKLEIK"
56900,37200,"AB4-9 (antibody, V domains shown) VH: QVQLVQSGAEVKKPGASVKMSCKASGYTFTSYTMHWIRQAPGQGLEWIGYINPSSTYTHYIKKFKDRATLTADTSTSTAYMELSSLRSEDTAVYYCSRGELGGFAYWGQGTLVTVSS VL: DVVMTQSPLSLPVTLGQPASISCRSSQSLVHSDGNTYLNWYQQRPGQSPRLLIYKVSNRFSGVPDRFSGSGSGTDFTLKISRVEAEDVGVYYCSQSTHVPYTFGQGTKLEIK"
77600,49300,"AB4-8 (antibody, V domains shown) VH: QVQLVQSGAEVKKPGASVKVSCKASGYTFTSYTMHWVRQAPGQGLEWMGYINPSSTYTHYIKKFKDRVTMTADTSTSTVYMELSSLRSEDTAVYYCSRGELGGFAYWGQGTLVTVSS VL: DVVMTQSPLSLPVTLGQPASISCRSSQSLVHSDGNTYLNWYQQRPGQSPRLLIYKVSNRFSGVPDRFSGSGSGTDFTLKISRVEAEDVGVYYCSQSTHVPYTFGQGTKLEIK"
49000,14100,"AB4-4 (antibody, V domains shown) VH: QVQLVQSGAEVKKPGASVKMSCKASGYTFTSYTMHWIRQAPGQGLEWIGYINPSSTYTHYAQKFQGRATLTADTSTSTAYMELSSLRSEDTAVYYCSRGELGGFAYWGQGTLVTVSS VL: DVVMTQSPLSLPVTLGQPASISCRSSQSLVHSDGNTYLNWYQQRPGQSPRLLIYKVSNRFSGVPDRFSGSGSGTDFTLKISRVEAEDVGVYYCSQSTHVPYTFGQGTKLEIK"
396000,309000,"AB3-2 (antibody, V domains shown) VH: EVQLLESGGGLVQPGGSMRLSCAASGFTFSNYWMNWVRQAPGKGLEWVAQIRLKSDNYATHYADSVKGRFTISRDDSKNTVYLQMNSLRAEDTGVYYCNDGPPSGCWGQGTLLTVSS VL: DIQMTQSPSSLSASVGDRVTITCRISENIYSYLAWYQQKPGKAPKLLIYNAKILVEGVPSRFSGSGSGTDFTLTISSLQPEDFATYYCQHHYTVPWTFGQGTKLEIK"
340000,251000,"AB3-3 (antibody, V domains shown) VH: EVQLLESGGGLVQPGGSMRLSCAASGFTFSNYWMNWVRQAPGKGLEWVAQIRLKSDNYATHYADSVKGRFTISRDDSKNTVYLQMNSLRAEDTGVYYCNDGPPSGCWGQGTLLTVSS VL: DIQMTQSPSSLSASVGDRVTITCRISENIYSYLAWYQQKPGKAPKLLVYNAKILVEGVPSRFSGSGSGTDFTLTISSLQPEDFGTYYCQHHYTVPWTFGQGTKLEIK"
55800,11600,"AB3-4 (antibody, V domains shown) VH: EVQLLESGGGLVQPGGSMRLSCAASGFTFSNYWMNWVRQAPGKGLEWVAQIRLKSDNYATHYADSVKGRFTISRDDSKNTVYLQMNSLRAEDTGVYYCNDGPPSGYWGQGTLLTVSS VL: DIQMTQSPSSLSASVGDRVTITCRISENIYSYLAWYQQKPGKAPKLLIYNAKILVEGVPSRFSGSGSGTDFTLTISSLQPEDFATYYCQHHYTVPWTFGQGTKLEIK"
48600,13300,"AB3-5 (antibody, V domains shown) VH: EVQLLESGGGLVQPGGSMRLSCAASGFTFSNYWMNWVRQAPGKGLEWVAQIRLKSDNYATHYADSVKGRFTISRDDSKNTVYLQMNSLRAEDTGVYYCNDGPPSGYWGQGTLLTVSS VL: DIQMTQSPSSLSASVGDRVTITCRISENIYSYLAWYQQKPGKAPKLLVYNAKILVEGVPSRFSGSGSGTDFTLTISSLQPEDFGTYYCQHHYTVPWTFGQGTKLEIK"
459000,267000,"AB3-chim (antibody, V domains shown) VH: EVKLEESGGGLVQPGGSMKLSCVASGFTFSNYWMNWVRQSPEKGLEWVAQIRLKSDNYATHYAESVKGRFTISRDDSKRSVYLQMNNLRAEDTGTYYCNDGPPSGCWGQGTTLIVSS VL: DIQMTQSPASLSASVGETVTITCRISENIYSYLAWYQQKQGKSPQLLVYNAKILVEGVPSRFSGSGSGTQFSLKINSLQPEDFGNYYCQHHYTVPWTFGGGTKLEIK"
142000,142000,"AB1-3 (antibody, V domains shown) VH: QVQLVQSGAEVKKPGASVKVSCKASGYTFTTYTMHWVRQAPGQGLEWMGFINPSSGYTDYAQKFQGRVTMTADTSTSTVYMELSSLRSEDTAVYYCANGDYYVAYWGQGTLVTVSS VL: DIQMTQSPSSLSASVGDRVTITCTASSSVSSTYFHWYQQKPGKAPKLLIYSTSNLASGVPSRFSGSGSGTDYTLTISSLQPEDFATYYCHQYHRSPLTFGQGTKLEIK"
113000,64900,"AB1-11 (antibody, V domains shown) VH: QVQLVQSGAEVKKPGASVKMSCKASGYTFTTYTMHWVRQAPGQGLEWIGFINPSSGYTDYAQKFQGRVTLTADKSTSTVYMELSSLRSEDTAVYYCANGDYYVAYWGQGTLVTVSS VL: DIQLTQSPSSLSASVGDRVTMTCTASSSVSSTYFHWYQQKPGKAPKLWIYSTSNLASGVPSRFSGSGSGTDYTLTISSMQPEDAATYYCHQYHRSPLTFGQGTKLEIK"
207000,79200,"AB1-7 (antibody, V domains shown) VH: QVQLVQSGAEVKKPGASVKMSCKASGYTFTTYTMHWVRQAPGQGLEWIGFINPSSGYTDYAQKFQGRVTLTADTSTSTVYMELSSLRSEDTAVYYCANGDYYVAYWGQGTLVTVSS VL: DIQLTQSPSSLSASVGDRVTMTCTASSSVSSTYFHWYQQKPGKAPKLLIYSTSNLASGVPSRFSGSGSGTDYTLTISSMQPEDAATYYCHQYHRSPLTFGQGTKLEIK"
213000,138000,"AB1-5 (antibody, V domains shown) VH: QVQLVQSGAEVKKPGASVKVSCKASGYTFTTYTMHWVRQAPGQGLEWMGFINPSSGYTDYAQKFQGRVTMTADTSTSTVYMELSSLRSEDTAVYYCANGDYYVAYWGQGTLVTVSS VL: DIQLTQSPSSLSASVGDRVTMTCTASSSVSSTYFHWYQQKPGKAPKLWIYSTSNLASGVPSRFSGSGSGTDYTLTISSMQPEDAATYYCHQYHRSPLTFGQGTKLEIK"
227000,120000,"AB1-6 (antibody, V domains shown) VH: QVQLVQSGAEVKKPGASVKMSCKASGYTFTTYTMHWVRQAPGQGLEWIGFINPSSGYTDYAQKFQGRVTLTADTSTSTVYMELSSLRSEDTAVYYCANGDYYVAYWGQGTLVTVSS VL: DIQMTQSPSSLSASVGDRVTITCTASSSVSSTYFHWYQQKPGKAPKLLIYSTSNLASGVPSRFSGSGSGTDYTLTISSLQPEDFATYYCHQYHRSPLTFGQGTKLEIK"
197000,102000,"AB1-4 (antibody, V domains shown) VH: QVQLVQSGAEVKKPGASVKVSCKASGYTFTTYTMHWVRQAPGQGLEWMGFINPSSGYTDYAQKFQGRVTMTADTSTSTVYMELSSLRSEDTAVYYCANGDYYVAYWGQGTLVTVSS VL: DIQLTQSPSSLSASVGDRVTMTCTASSSVSSTYFHWYQQKPGKAPKLLIYSTSNLASGVPSRFSGSGSGTDYTLTISSMQPEDAATYYCHQYHRSPLTFGQGTKLEIK"
210000,98800,"AB1-8 (antibody, V domains shown) VH: QVQLVQSGAEVKKPGASVKMSCKASGYTFTTYTMHWVRQAPGQGLEWIGFINPSSGYTDYAQKFQGRVTLTADTSTSTVYMELSSLRSEDTAVYYCANGDYYVAYWGQGTLVTVSS VL: DIQLTQSPSSLSASVGDRVTMTCTASSSVSSTYFHWYQQKPGKAPKLWIYSTSNLASGVPSRFSGSGSGTDYTLTISSMQPEDAATYYCHQYHRSPLTFGQGTKLEIK"
364000,312000,"AB1-Chim (antibody, V domains shown) VH: QVQLQQSAAELARPGASVKMSCKASGYTFTTYTMHWVKQRPGQGLEWIGFINPSSGYTDYNQKFKDRTTLTADKSSSTVYMQLSSLTSEDSAVYYCANGDYYVAYWGQGTLVTVSA VL: QIVLTQSPAIMSASLGERVTMTCTASSSVSSTYFHWYQQKPGSSPKLWIYSTSNLASGVPRRFSGSASGTSYSLTISSMEAEDAATYYCHQYHRSPLTFGAGTKLELK"
